Results reported in the supplement of paper PMC10567573.
± gives the standard deviation.

Assay: protein stability index of a GFP-peptide fusion (GPS, HEK-293T) (PSI 1-6); higher = more stable
Conditions: c terminus: a fixed tail appended
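Note: 24-mer peptide tiles fused after GFP, lentivirally expressed, FACS-sorted into six equal bins by GFP/DsRed ratio, decoded by Illumina sequencing, PSI is the read-weighted mean bin number.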

Row | Sequence | protein stability index (treatment: DMSO) | protein stability index (treatment: MLN4924 1 uM, 8 h)
1 | TQHVNNWMKHNVADSQITTIGNLV [PTPRD] | 2.9 ± 0.44 | 3.12 ± 0.42
2 | GGPSSPPSDPPAMSPGPLDALSSP [C2CD2L] | 5.23 ± 0.26 | 5.27 ± 0.14
3 | PHDFIEHFLSKMPEAEENKQIIRK [CCND1] | 3.96 ± 0.21 | 4.27 ± 0.22
4 | GLLICLPREQAARFCSEIKSSKYG [SEPHS2] | 2.04 ± 0.28 | 2.17 ± 0.55
5 | DEKEQLIIPQVPLFNILAKFNGIT [USP39] | 2.54 ± 0.3 | 2.57 ± 0.31
6 | LNRDEEIIKQLQKGVQQKRPSEAQ [DENND6A] | 4.94 ± 0.097 | 4.83 ± 0.31
7 | ILRFIYSGAFQWEELEEDIRKKLK [RHOBTB3] | 2.25 ± 0.27 | 2.48 ± 0.53
8 | NYEKEEEFLTNELSRKLMQLQHEK [CCDC6] | 4.43 ± 0.15 | 4.55 ± 0.38
9 | QQQEPPLAMGTVSLGQLPLPPIPH [PLAGL1] | 4.33 ± 0.14 | 4.35 ± 0.15
10 | ILKRKWWKYILLGLADVEANYVIV [SLC35F2] | 2.55 ± 0.5 | 2.23 ± 0.76
11 | QVLPDSESLPRSEIDEKVTDLVQF [MAGEA10] | 5.03 ± 0.3 | 4.99 ± 0.35
12 | RKVTDSISKSLELCNEISLSEIKD [DLC1] | 4.136 ± 0.019 | 4.26 ± 0.11
13 | RATSLGRPEEEEDELAHRCSSFMA [CPOX] | 4.68 ± 0.33 | 4.71 ± 0.17
14 | NFVHRFPFVAVSIGFAVNKKIEFG [IMPA1] | 2.91 ± 0.76 | 2.77 ± 0.61
15 | LIKPSRVVAILAAACLLQLDGLIQ [GMCL1] | 3.11 ± 0.32 | 2.89 ± 0.27
16 | LREAVPGILRARRGEGIQAPSFSS [SOAT2] | 3.4 ± 0.29 | 3.44 ± 0.35
17 | GSLDIMKMLLMYCAKMEKDGYGMT [FEM1C] | 3.22 ± 0.46 | 2.58 ± 0.7
18 | SEEQFRQRSPLGGDVLHAHLDIWK [SPDEF] | 3.34 ± 0.36 | 3.27 ± 0.1
19 | SEDGSYGTDVTRCICGFTHDDGYM [KMT2E] | 3.33 ± 0.42 | 3.36 ± 0.34
20 | MQQSNLDPLSPMTASSLLSFAELF [FEM1C] | 2.83 ± 0.29 | 2.52 ± 0.42
21 | GNAHYQRADFVLAANSYDLAIKAI [FKBP8] | 2.5 ± 0.079 | 2.43 ± 0.33
22 | PNINKISMQAVLDYLYTKQLSPNL [RHOBTB1] | 2.25 ± 0.68 | 2.16 ± 0.31
23 | NGSMAMGTVPGQAPRLAVAVPAVT [LYSMD4] | 3.77 ± 0.43 | 4 ± 0.23

Row | Sequence | protein stability index (treatment: DMSO) | protein stability index (treatment: MLN4924 1 uM, 8 h)
24 | MNEHPVCSRTWTNRLCHQEMGSKK [SPAG8] | 3.94 ± 0.28 | 4.09 ± 0.12
25 | VILISRISSVGGEAMFCDFPKINH [CFHR2] | 3.66 ± 1.3 | 2.97 ± 0.21
26 | NLGRMIDWVPVESLLRPLNSLAAL [ZER1] | 1.72 ± 0.18 | 2.28 ± 0.66
27 | LKIDFGDSARADDARQLFVLAGAA [GNAI1] | 2.59 ± 0.37 | 2.68 ± 0.27
28 | AFAPDFKELDENVEYEERESEFDI [RBBP5] | 5.38 ± 0.15 | 5.16 ± 0.41
29 | SNITSETGFRTISSLEEIVEKQGD [TMEM192] | 5.44 ± 0.19 | 5.35 ± 0.15
30 | IGATFTDWFTSYVKNVVSGGFPII [FBXO3] | 2.65 ± 0.84 | 2.7 ± 0.76
31 | LFVLLSVVCVLLNLAGFILGCQGA [FAM189A2] | 3.15 ± 0.38 | 3.25 ± 0.61
32 | ADPDEMRMQALLIRERILGPSHPD [FEM1C] | 3.94 ± 0.33 | 3.94 ± 0.13
33 | AFRWGAHLVQHQRIHSGEKPYECN [ZNF232] | 2.79 ± 0.25 | 2.87 ± 0.19
34 | NKPMLADVVFEIQGTTVPAHRAIL [RHOBTB3] | 2.3 ± 0.27 | 2.29 ± 0.2
35 | WNDSCGEDMEASDYELEDETRPAK [WEE1] | 5.41 ± 0.32 | 5.45 ± 0.17
36 | KLRRQVIQVVLNGMESYQEVTVQR [ZER1] | 2 ± 0.19 | 2.28 ± 0.57
37 | TSEVDKRRTRPRHHHGRSRPDRSS [CHGB] | 5.07 ± 0.37 | 5.06 ± 0.31
38 | IDALLEFDVHPNELTNGVINAAFM [SNAP91] | 2.39 ± 0.38 | 2.32 ± 0.36
39 | MENKKKDKDKSDDRMARPSGRSGH [CSNK1G3] | 5.42 ± 0.34 | 5.31 ± 0.44
40 | FPSSGRFWKLYIEAEVTILFYFFL [CSTF3] | 2.87 ± 0.66 | 2.35 ± 0.9
41 | FFWHLTLPERRGTCADRDNLTRRF [CASP6] | 2.61 ± 0.36 | 2.09 ± 0.18
42 | KLDIQCDLKTLSDDIKESLESEGK [ATE1] | 5.19 ± 0.23 | 5.01 ± 0.1
43 | VGPRETEEKVRDLLWAKFTNSDTP [TOR1AIP2] | 4.14 ± 0.43 | 4.1 ± 0.3
44 | PECRQVLKTSRKDVKDKETTENEN [CHGB] | 5.54 ± 0.3 | 5.45 ± 0.37
45 | CGTPEYLAPEVIQSKGHGRAVDWW [PRKX] | 2.72 ± 0.54 | 2.45 ± 0.15
46 | PRAVLKPRRVCVGGKRRRDDISVD [PPP2R2C] | 4.02 ± 0.18 | 4.25 ± 0.39

Row | Sequence | protein stability index (treatment: DMSO) | protein stability index (treatment: MLN4924 1 uM, 8 h)
47 | GELSPEQPSFEPTKNKELTDEFRE [FADS1] | 5.52 ± 0.33 | 5.38 ± 0.18
48 | QPLRTPRDEAIYECVASNNVGEIS [PTPRD] | 4.88 ± 0.23 | 5.13 ± 0.12
49 | ANSLLASPTGLSPYLRFGCLSCRL [CRY1] | 2.15 ± 0.27 | 2.37 ± 0.32
50 | VEEGDSRFLANEVLQENYTHLPKA [WEE1] | 4.74 ± 0.2 | 4.81 ± 0.13
51 | QGEPLGYRQDDPSYRSFHSGGYGQ [CTNNB1] | 3.76 ± 0.48 | 3.96 ± 0.24
52 | INAAFMLLFKDLIKLFACYNDGVI [SNAP91] | 2.9 ± 0.54 | 3.39 ± 0.65
53 | EILGIEPDREKGFHLDVEDYLSGV [TSN] | 3.27 ± 0.22 | 3.45 ± 0.41
54 | GQRIRRGSIGVWHYICPRLGGIGF [SLC6A17] | 2.23 ± 0.27 | 2.42 ± 0.2
55 | YQIYDVSGESNSAVSTEDLKECLK [LARP4] | 4.2 ± 0.18 | 4.2 ± 0.19
56 | PGAFIAGVPVQPVLIRYPNSLDTT [LPCAT4] | 2.72 ± 0.19 | 2.75 ± 0.36
57 | MPPLLPLRLCRLWPRNPPSRLLGA [DNAJC4] | 2.29 ± 0.37 | 2.15 ± 0.11
58 | GPARSGFRLETLAGLRSRRLKQPK [MIR22HG] | 3.87 ± 0.24 | 4.14 ± 0.13
59 | ERVALANRKRECGNAHYQRADFVL [FKBP8] | 2.98 ± 0.27 | 2.75 ± 0.12
60 | NRDSYFYAAIVAVVAVHVVLALFV [VMA21] | 2.3 ± 0.16 | 2 ± 0.2
61 | LITFDNKAHSGRIPISLETQAHIQ [MCOLN1] | 2.91 ± 0.26 | 3.04 ± 0.23
62 | GTCALWDVESGQLLQSFHGHGADV [GNB5] | 2.75 ± 0.28 | 2.99 ± 0.51
63 | VNNNYEHRHTSHLGHAVLPSNARG [SPRY1] | 3.96 ± 0.2 | 4.03 ± 0.21
64 | VNHYSEVADGLCCVLTTPCLTQST [SLA] | 2.77 ± 0.27 | 2.53 ± 0.38
65 | KGYNIWTGGPDACLRCWDQRTIMK [TLE6] | 2.32 ± 0.18 | 2.45 ± 0.14
66 | KSEGLSGRVLRKLPFLAHALYVQA [TRIP13] | 2.3 ± 0.58 | 2.13 ± 0.42
67 | AARKKYNLLQDSSTSDSDLTCDSS [C18orf25] | 4.96 ± 0.21 | 4.89 ± 0.23
68 | ESTPVGTVVGLFNVRDRDSGRNGE [PCDHGC5] | 4.92 ± 0.33 | 4.89 ± 0.31
69 | GEGVERELFVREPTGRLPALVRWW [MYORG] | 2.91 ± 0.075 | 2.77 ± 0.34

Row | Sequence | protein stability index (treatment: DMSO) | protein stability index (treatment: MLN4924 1 uM, 8 h)
70 | VKYGLAATVWSSNVGRVHRVAKKL [ALDH8A1] | 2.48 ± 0.33 | 2.43 ± 0.4
71 | HSAVLRDLRSGTLYSLTLYGLRGP [TNXB] | 2.98 ± 0.63 | 2.68 ± 0.38
72 | PLGLEADMWSIGVITYILLSGASP [DAPK3] | 2.52 ± 1.4 | 2.27 ± 0.23
73 | KAPVVECSITGDSSRVIAASYDKT [WDR88] | 4.56 ± 0.2 | 4.78 ± 0.12
74 | DQFLEDVRLQERTSGGLLSEAPNE [NOP53] | 5.23 ± 0.13 | 5.38 ± 0.31
75 | ENAQKKRFNQVLKNLLHAEFLRVQ [VPS39] | 2.73 ± 0.43 | 2.29 ± 0.39
76 | ETALTLACCGGFLEVADFLIKAGA [ANKRD17] | 2.54 ± 0.9 | 2.65 ± 0.76
77 | RLFEDVRSWMFRRGPLNSDRSDYF [TRIM43] | 2.54 ± 0.42 | 2.63 ± 0.13
78 | QNNQAKELERLIDKAMKKDGLVGM [FIS1] | 4.18 ± 0.19 | 4.3 ± 0.12
79 | ELFSYLRNRGRFSSTTGLFYSAEI [PRKX] | 2.36 ± 0.84 | 2.44 ± 1.3
80 | PAARRCHSCVQIKNDVFICGGYNG [KLHDC10] | 2.29 ± 0.42 | 2.43 ± 0.2
81 | VASFKFDAGEVSYLPRDFSTYRPL [MYORG] | 2.28 ± 0.37 | 2.54 ± 0.17
82 | FEFDETSFWNSSHPRGWNDHVHIL [KLHDC2] | 2.37 ± 0.64 | 2.18 ± 0.28
83 | IGIEAKNLASYDVCSILLGTSTLL [MCOLN1] | 2.84 ± 0.7 | 2.92 ± 0.66
84 | ASCLQELFKAHFRGEVLPEEITEE [INTS3] | 3.71 ± 0.34 | 3.95 ± 0.12
85 | EGGVLRGSKLEKGHLRGPEIRDWR [ZSWIM9] | 3.8 ± 0.2 | 4.02 ± 0.31
86 | LLRREPAERLTATGILLHPWLRQD [TRIB3] | 2.47 ± 0.27 | 2.45 ± 0.25
87 | AHSAAVTASGDCYTFGSNQHGQLG [NEK8] | 3.81 ± 0.2 | 3.94 ± 0.35
88 | CSELNKLCQHFEAVHSGTPVTNNL [SPACA9] | 2.95 ± 0.47 | 2.97 ± 0.24
89 | NIDIQNGFLLRYAVIKSNHSYCRM [ASB7] | 2.57 ± 0.38 | 2.54 ± 0.36
